Ends that are not written are not given here.
B1: peptide 23–437 (free, chemically synthesized) (peptide)
peptide: FTKEIDSWWLSLMSS
notes: selected from a peptide phage library against IL-23; No cysteines, 15 residues; source: synthetic peptide (CPC Scientific)
B2: peptide 23–447 (free, chemically synthesized) (peptide)
peptide: LECLYYLRWKVCDN
modifications: not fully specified (bridges); cysteine pairing not given here
notes: selected from a peptide phage library against IL-23; Two cysteines; source: synthetic peptide (CPC Scientific)
B3: peptide 23–441 (free, chemically synthesized) (peptide)
peptide: QKITQCVYIIWTYPCLLNDV
notes: as for B2
B4: wild-type IL-23 displayed on yeast, Q9NPF7;P29460 W137A (protein)
chain 1: RAVPGGSSPAWTQCQQLSQKLCTLAWSAHPLVGHMDLREEGDEETTNDVPHIQCGDGCDPQGLRDNSQFCLQRIHQGLIFYEKLLGSDIFTGEPSLLPDSPVGQLHASLLGLSQLLQPEGHHWETQQIPSLSPSQPAQRLLLRFKILRSLQAFVAVAARVFAHGAATLSP
chain 2: IWELKKDVYVVELDWYPDAPGEMVVLTCDTPEEDGITWTLDQSSEVLGSGKTLTIQVKEFGDAGQYTCHKGGEVLSHSLLLLHKKEDGIWSTDILKDQKEPKNKTFLRCEAKNYSGRFTCWWLTTISTDLTFSVKSSRGSSDPQGVTCGAATLSAERVRGDNKEYEYSVECQEDSACPAAEESLPIEVMVDAVHKLKYENYTSSFFIRDIIKPDPPKNLQLKPLKNSRQVEVSWEYPDTWSTPHSYFSLTFCVQVQGKSKREKKDRVFTDKTSATVICRKNASISVRAQDRYYSSSWSEWASVPCS
B5: wild-type IL-23 displayed on yeast, Q9NPF7;P29460 L141A (protein)
chain 1: RAVPGGSSPAWTQCQQLSQKLCTLAWSAHPLVGHMDLREEGDEETTNDVPHIQCGDGCDPQGLRDNSQFCLQRIHQGLIFYEKLLGSDIFTGEPSLLPDSPVGQLHASLLGLSQLLQPEGHHWETQQIPSLSPSQPWQRLALRFKILRSLQAFVAVAARVFAHGAATLSP
chain 2: IWELKKDVYVVELDWYPDAPGEMVVLTCDTPEEDGITWTLDQSSEVLGSGKTLTIQVKEFGDAGQYTCHKGGEVLSHSLLLLHKKEDGIWSTDILKDQKEPKNKTFLRCEAKNYSGRFTCWWLTTISTDLTFSVKSSRGSSDPQGVTCGAATLSAERVRGDNKEYEYSVECQEDSACPAAEESLPIEVMVDAVHKLKYENYTSSFFIRDIIKPDPPKNLQLKPLKNSRQVEVSWEYPDTWSTPHSYFSLTFCVQVQGKSKREKKDRVFTDKTSATVICRKNASISVRAQDRYYSSSWSEWASVPCS
B6: IL-23R-FLAG-HIS (receptor)
chain: GITNINCSGHIWVEPATIFKMGMNISIYCQAAIKNCQPRKLHFYKNGIKERFQITRINKTTARLWYKNFLEPHASMYCTAECPKHFQETLICGKDISSGYPPDIPDEVTCVIYEYSGNMTCTWNAGKLTYIDTKYVVHVKSLETEEEQQYLTSSYINISTDSLQGGKKYLVWVQAANALGMEESKQLQIHLDDIVIPSAAVISRAETINATVPKTIIYWDSQTTIEKVSCEMRYKATTNQTWNVKEFDTNFTYVQQSEFYLEPNIKYVFQVRCQETGKRYWQPWSSLFFHKTPETVPQVTSKAFQHDTWNSGLTVASISTGHLTSDNRGDIG
modifications: Soluble monomeric ectodomain, FLAG and His tags left out. Limits are not printed in the main text (constructs are in S1 Table of the supplement), so the mature extracellular domain from UniProt …

What was measured:
IL-23-AVI [1] = biological target: T1, IL-23-AVI (human, UniProt Q9NPF7 20-189; P29460 23-328); assay: SPR; Biacore T200, 25°C, 50 μl/min; 2000–9000 RU of IL-23-AVI captured to streptavidin chip, peptides as analyte (3-fold series, up to 30 μM); 10 mM HEPES pH 7.5, 150 mM NaCl, 0.005% P20, 3% DMSO; multi-cycle, single cycle kinetics for 23–652; 1:1 model; n = 1; conditions: both partners purified
T1 construct: IL-23 p19 subunit, human; IL-12/IL-23 p40 subunit, human; Captured on streptavidin chips and beads, so biotinylation of the Avi tag is implied; also called Avi-tagged IL-23; recombinant IL-23
T1 sequence (looked up) 1: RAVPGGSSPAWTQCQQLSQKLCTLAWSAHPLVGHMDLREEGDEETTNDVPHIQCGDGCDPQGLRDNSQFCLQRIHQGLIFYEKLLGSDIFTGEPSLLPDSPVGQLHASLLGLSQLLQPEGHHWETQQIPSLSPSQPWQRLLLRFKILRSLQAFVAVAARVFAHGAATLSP
T1 sequence (looked up) 2: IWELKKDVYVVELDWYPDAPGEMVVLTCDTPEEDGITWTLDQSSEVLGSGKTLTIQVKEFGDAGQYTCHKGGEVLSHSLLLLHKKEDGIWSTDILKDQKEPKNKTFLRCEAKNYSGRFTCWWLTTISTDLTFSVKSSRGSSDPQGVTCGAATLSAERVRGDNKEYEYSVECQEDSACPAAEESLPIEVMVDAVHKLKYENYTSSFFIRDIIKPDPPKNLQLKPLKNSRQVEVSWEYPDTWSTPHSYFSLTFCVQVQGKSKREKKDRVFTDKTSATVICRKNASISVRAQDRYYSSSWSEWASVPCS

IL-23-AVI [2] = biological target: T1, IL-23-AVI; assay: AlphaScreen or HTRF; AlphaLISA; IL-23-AVI (1.5 nM) pre-incubated with peptide 30 min, then FLAG-tagged IL-23R (3 nM); streptavidin donor and anti-FLAG acceptor beads; 25 mM HEPES pH 7.4, 150 mM NaCl, 0.02% Tween 20, 0.1% BSA; room temperature; n = 1; conditions: both partners purified
IL-23-HIS = biological target: T2, IL-23-HIS (human, UniProt Q9NPF7 20-189; P29460 23-328); assay: SPR; competition SPR, 25°C; IL-23R-Fc-AVI (<1000 RU) captured on Protein-A; 20 nM IL-23 mixed with one concentration of peptide or cold IL-23R injected 30 s; 10 mM HEPES pH 7.5, 150 mM NaCl, 0.005% P20, 1% BSA; n = 1; conditions: both partners purified
T2 construct: IL-23 p19 subunit, human; IL-12/IL-23 p40 subunit, human; also called IL-23 only; IL-23 protein
T2 sequence (looked up) 1: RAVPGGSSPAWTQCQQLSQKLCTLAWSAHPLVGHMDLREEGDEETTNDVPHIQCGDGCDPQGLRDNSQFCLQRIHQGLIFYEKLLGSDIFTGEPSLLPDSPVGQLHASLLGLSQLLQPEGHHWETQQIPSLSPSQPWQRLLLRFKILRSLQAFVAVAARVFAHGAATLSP
T2 sequence (looked up) 2: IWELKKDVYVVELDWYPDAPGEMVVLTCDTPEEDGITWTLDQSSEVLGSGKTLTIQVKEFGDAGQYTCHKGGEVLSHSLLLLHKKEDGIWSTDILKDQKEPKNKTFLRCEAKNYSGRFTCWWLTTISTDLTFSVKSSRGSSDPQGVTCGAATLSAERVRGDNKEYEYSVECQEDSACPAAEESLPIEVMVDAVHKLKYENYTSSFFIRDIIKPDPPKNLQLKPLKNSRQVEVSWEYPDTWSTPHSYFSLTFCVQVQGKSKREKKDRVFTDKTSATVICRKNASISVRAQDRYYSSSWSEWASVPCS

IL-23-AVI [3] = biological target: T1, IL-23-AVI; assay: AlphaScreen or HTRF; TR-FRET; compounds pre-incubated with IL-23R-FLAG 1 h, then IL-23-AVI; Europium-streptavidin and anti-FLAG-allophycocyanin; 25 mM HEPES, 150 mM NaCl, 0.02% Tween 20, 0.1% BSA, pH 7.4, 1% DMSO; n = 1; conditions: both partners purified
[4] = biological target: T3, Fluorescently labeled IL-23R, Q5VWK5; assay: flow cytometry on yeast-displayed IL-23; conditions: chain shown with the change; n = 1; parent: est. 1.05; read off a plot
T3 chain: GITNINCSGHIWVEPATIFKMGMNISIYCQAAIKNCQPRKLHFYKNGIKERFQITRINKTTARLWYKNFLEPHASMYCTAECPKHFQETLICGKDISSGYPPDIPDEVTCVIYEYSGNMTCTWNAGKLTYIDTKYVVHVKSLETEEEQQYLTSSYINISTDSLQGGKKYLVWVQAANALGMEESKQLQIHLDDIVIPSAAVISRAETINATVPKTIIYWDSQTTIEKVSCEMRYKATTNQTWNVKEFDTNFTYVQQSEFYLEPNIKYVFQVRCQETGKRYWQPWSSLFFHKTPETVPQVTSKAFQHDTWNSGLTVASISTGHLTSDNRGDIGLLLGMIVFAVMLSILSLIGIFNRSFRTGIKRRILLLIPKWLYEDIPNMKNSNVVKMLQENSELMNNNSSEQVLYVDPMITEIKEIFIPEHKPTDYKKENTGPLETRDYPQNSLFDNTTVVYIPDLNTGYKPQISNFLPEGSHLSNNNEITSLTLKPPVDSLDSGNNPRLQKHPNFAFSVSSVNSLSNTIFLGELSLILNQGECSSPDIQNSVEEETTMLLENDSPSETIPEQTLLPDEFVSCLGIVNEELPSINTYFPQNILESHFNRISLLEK

IL-23-AVI [5] = biological target: T1, IL-23-AVI; assay: SPR; Biacore T200, 25°C; 200–1000 RU of IL-23-AVI captured to streptavidin chip, IL-23R-FLAG-HIS as analyte, single cycle kinetics; 1:1 model; conditions: both partners purified

Binder | Kd (IL-23-AVI [1]) | koff (IL-23-AVI [1]) | kon (IL-23-AVI [1]) | IC50 (IL-23-AVI [2]) | % inhibition of IL-23 binding to immobilised IL-23R (peptide at 30 μM) (IL-23-HIS) | IC50 (IL-23-AVI [3]) | ratio to parent [4] | Kd (IL-23-AVI [5]) | koff (IL-23-AVI [5]) | kon (IL-23-AVI [5])
B1 | 10.5 µM | 1.86 s⁻¹ | 178000 M⁻¹ s⁻¹ | 1.4 µM | 57.6% | 7 µM | – | – | – | –
B2 | ~27.5 µM | ~1.33 s⁻¹ | ~48300 M⁻¹ s⁻¹ | 6.7 µM | 78.7% | 24 µM | – | – | – | –
B3 | 0.911 µM | 0.174 s⁻¹ | 190000 M⁻¹ s⁻¹ | 2.5 µM | 100% | 5.7 µM | – | – | – | –
B4 | – | – | – | – | – | – | 0.1 | – | – | –
B5 | – | – | – | – | – | – | 0.1 | – | – | –
B6 | – | – | – | – | – | – | – | 0.00892 µM | 0.00151 s⁻¹ | 170000 M⁻¹ s⁻¹

Reference: publication PMC7263589, “Integration of phage and yeast display platforms: A reliable and cost effective approach for binning of peptides as displayed on-phage” (PLoS ONE, 2020)
